The values that follow come from patent US20230304022.

Common to all, as to experiment: cell_activity
Data set [1] relates to Gin-Avr15Δ120 (synthetic repeats) (synthetic). To be noted: for activity (fold luciferase reduction): HEK293T.
Data set [2] concerns Gin-Pth15Δ120 (synthetic repeats) (synthetic). The note with it: E. coli.
The test system of data set [3] is Gin-AvrXa7 Δ128 (synthetic). The note with it: E. coli.
For data set [4], the system named is TALEN A2 NT-αN (synthetic). The note with it: HeLa; pair A1/A2.
Data set [5] relates to GinC4 zinc finger recombinase (synthetic). The note with it: HEK293T; 107-fold in p263.
For data set [6], the system named is TALEN A1 NT-αN (synthetic). To be noted: HeLa; pair A1/A2.
In data set [7] the test system is TALEN C2 NT-αN (synthetic). To be noted: HeLa; pair C1/C2.
The subject of data set [8] is GinC4 + Gin-Avr15Δ120 heterodimer (synthetic). The note with it: HEK293T; ZFR-TALER heterodimer.

Take “GTGGTGTACAGTAGGGGGAGATGCAGCTGCTTCCAAAACCATGGTTTACAGGGTGGTTGCATCTCCCCCTACTGTACACCAC (double strand) [PthXo1-32G]”: in data set [1] (E. coli), the activity (fold less than cognate site) was over 600. Also, the activity (fold over non-cognate site) in data set [2] was over 600. In addition, in data set [3] (non-cognate TALE site), the activity (fold less than cognate) was over 100.
In the case of “TTAGCACCTGGTTGGAGGGGGTTTATAGCTTCATCCAAAACCATGGTTTACAGGGTTCCTATAAACCCCCTCCAACCAGGTGCTAA (double strand) [Avr32G]”, the activity (fold luciferase reduction) in data set [1] came out at 6. For the same sequence, in data set [2], the activity (fold less than cognate site) is over 600.
Regarding “TTAGCACCTGGTTGGAGGGGGTTTATAGCTTCACGAAATATTATAAATTATCAGGTTCCTATAAACCCCCTCCAACCAGGTGCTAA (double strand) [Avr32T]”, the activity (fold less than cognate core) in data set [1] (E. coli) was over 1000. In addition, the activity (fold less than cognate) in data set [3] was over 100.
In the case of “ATTCTTCCAGAATTGA (double strand) [TALEN A2 half-site]”, the activity (fold over NT-T) in data set [4] amounted to 9.
With “GCGGGAGGCGTGTCCAAAACCATGGTTTACAG (double strand) [C4-20G (C4 zinc finger site flanking Gin core)]”, the activity (fold luciferase reduction) in data set [5] is over 80.
As for “TTAGCACCTGGTTGGAGGGGGTTTATAGCTTCATCCAAAACCGGGGTTTACAGGGTTCCTATAAACCCCCTCCAACCAGGTGCTAA (double strand) [Avr32GG]”, the activity (fold less than cognate) in data set [3] is over 100.
Take “CCTGCAGCTCTCATTTT (double strand) [TALEN A1 half-site]”: the activity (fold over NT-T) in data set [6] was determined as 9.
Turning to “CAGAATTGATACTGACT (double strand) [TALEN C2 half-site]”, in data set [7], the activity (fold over NT-T) was found to be 2.
For the sequence “TTAGCACCTGGTTGGAGGGGGTTTATAGCTTCAGCTTCATCCAAAACCATGGTTTACAGGGTTCCGGTTCCTATAAACCCCCTCCAACCAGGTGCTAA (double strand) [Avr44G]”, the activity (fold luciferase reduction) in data set [1] came out at 20.
As for “GCGGGAGGCGTGTCCAAAACCATGGTTTACAGGGTTCCTATAAACCCCCTCCAACCAGGTGCTAA (double strand) [Avr-G-ZF hybrid site]”, the activity (fold luciferase reduction) in data set [8] is over 140.
